The target in experiment [1] is KDR expressed on the surface of HUVEC (human, UniProt P35968 20-1356). Description: cell-based or functional assay.
Experiment [2] addresses T1, soluble fusion protein KDR-AP (human, UniProt P35968 20-764).
T1 construct: extracellular domain; Expressed in NIH 3T3 cells; also called KDR-alkaline phosphatase fusion protein; immobilized KDR; not shown: human placental alkaline phosphatase (AP) of the vector AP-Tag
Description: direct binding ELISA on KDR-coated plate, detected by anti-E tag antibody-HRP. For orientation: ELISA stands for enzyme-linked immunosorbent assay.

Experiment [3] deals with T1, soluble fusion protein KDR-AP. Description: BIAcore, KDR-AP immobilized (Table 2). As for the experimental part: Sensorgrams were obtained at each concentration and were evaluated using a program, BIA Evaluation 2.0, to determine the rate constants kon and koff. Kd was calculated as the ratio of rate constants koff/kon.
*All rates are determined by surface plasmon resonance using BIAcore system and are mean of at least three separate determinations.

T1 sequence (P35968 20-764): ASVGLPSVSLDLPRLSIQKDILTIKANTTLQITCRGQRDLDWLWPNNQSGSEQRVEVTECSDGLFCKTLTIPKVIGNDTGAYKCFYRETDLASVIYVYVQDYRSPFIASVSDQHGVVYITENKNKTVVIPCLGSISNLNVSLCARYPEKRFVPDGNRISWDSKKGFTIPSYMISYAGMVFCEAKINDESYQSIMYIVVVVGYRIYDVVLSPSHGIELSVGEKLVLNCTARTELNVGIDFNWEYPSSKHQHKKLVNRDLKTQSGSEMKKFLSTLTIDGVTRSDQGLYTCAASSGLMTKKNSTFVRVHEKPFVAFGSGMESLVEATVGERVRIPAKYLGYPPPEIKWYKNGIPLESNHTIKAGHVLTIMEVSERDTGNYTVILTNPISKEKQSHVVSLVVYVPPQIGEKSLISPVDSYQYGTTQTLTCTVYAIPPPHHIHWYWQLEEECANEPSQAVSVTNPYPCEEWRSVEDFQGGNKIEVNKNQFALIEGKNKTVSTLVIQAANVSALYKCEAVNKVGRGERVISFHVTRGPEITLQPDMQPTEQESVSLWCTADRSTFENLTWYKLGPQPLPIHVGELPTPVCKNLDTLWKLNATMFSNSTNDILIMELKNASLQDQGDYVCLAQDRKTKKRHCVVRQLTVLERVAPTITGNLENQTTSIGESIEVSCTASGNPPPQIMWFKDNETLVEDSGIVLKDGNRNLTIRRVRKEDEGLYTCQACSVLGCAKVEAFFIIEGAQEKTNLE
KDR expressed on the surface of HUVEC, sequence (P35968 20-1356): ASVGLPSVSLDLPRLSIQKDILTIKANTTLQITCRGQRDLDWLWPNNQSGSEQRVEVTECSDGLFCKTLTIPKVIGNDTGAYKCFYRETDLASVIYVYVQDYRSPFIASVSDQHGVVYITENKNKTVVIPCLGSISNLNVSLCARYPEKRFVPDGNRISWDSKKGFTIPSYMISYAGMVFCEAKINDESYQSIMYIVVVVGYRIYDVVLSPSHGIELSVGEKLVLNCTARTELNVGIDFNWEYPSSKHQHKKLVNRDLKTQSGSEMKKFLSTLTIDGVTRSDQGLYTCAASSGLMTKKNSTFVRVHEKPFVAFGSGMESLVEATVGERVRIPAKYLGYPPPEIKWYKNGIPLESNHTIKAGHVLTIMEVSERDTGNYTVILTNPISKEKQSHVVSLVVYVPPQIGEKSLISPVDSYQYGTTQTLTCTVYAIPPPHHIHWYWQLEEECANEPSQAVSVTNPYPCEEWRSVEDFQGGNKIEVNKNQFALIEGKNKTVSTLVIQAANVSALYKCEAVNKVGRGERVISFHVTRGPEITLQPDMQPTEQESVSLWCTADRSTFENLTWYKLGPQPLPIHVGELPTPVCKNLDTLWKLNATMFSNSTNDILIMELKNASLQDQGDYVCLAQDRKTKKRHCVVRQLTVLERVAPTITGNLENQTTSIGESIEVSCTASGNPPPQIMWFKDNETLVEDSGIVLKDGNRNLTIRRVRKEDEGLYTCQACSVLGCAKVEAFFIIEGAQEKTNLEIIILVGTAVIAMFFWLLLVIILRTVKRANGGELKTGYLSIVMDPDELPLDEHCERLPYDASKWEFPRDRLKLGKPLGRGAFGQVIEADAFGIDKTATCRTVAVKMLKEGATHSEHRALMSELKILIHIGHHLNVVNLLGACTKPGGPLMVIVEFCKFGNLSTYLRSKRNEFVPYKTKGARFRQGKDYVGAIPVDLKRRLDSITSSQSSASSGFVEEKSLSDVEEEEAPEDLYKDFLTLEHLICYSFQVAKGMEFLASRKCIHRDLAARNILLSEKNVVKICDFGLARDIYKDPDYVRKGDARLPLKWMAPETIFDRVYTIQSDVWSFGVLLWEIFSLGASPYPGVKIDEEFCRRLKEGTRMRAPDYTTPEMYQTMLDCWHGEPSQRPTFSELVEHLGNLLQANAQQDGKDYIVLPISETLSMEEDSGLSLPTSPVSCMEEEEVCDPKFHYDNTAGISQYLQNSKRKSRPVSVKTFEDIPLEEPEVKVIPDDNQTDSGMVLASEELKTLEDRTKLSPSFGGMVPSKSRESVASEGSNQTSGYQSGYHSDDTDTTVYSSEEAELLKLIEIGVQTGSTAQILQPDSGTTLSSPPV

B1: scFv p1C11 (scFv)
chain: QVKLQQSGAELVGSGASVKLSCTTSGFNIKDFYMHWVKQRPEQGLEWIGWIDPENGDSDYAPKFQGKATMTADSSSNTAYLQLSSLTSEDTAVYYCNAYYGDYEGYWGQGTTVTVSSGGGGSGGGGSGGGGSDIELTQSPAIMSASPGEKVTITCSASSSVSYMHWFQQKPGTSPKLWIYSTSNLASGVPARFSGSGSGTSYSLTISRMEAEDAATYYCQQRSSYPFTFGSGTKLEIK
For B1, the “EC50, antibody concentration that inhibited 50% of VEGF-stimulated mitogenesis of HUVEC ([3H]-TdR incorporation)” value in experiment [1] is ~5 nM. Also, the half-maximal effective concentration (EC50 (read off the curve)) in experiment [2] was ~0.8 nM.

B2: chimeric anti-KDR antibody c-p1C11 (antibody, V domains shown)
VH: QVKLQQSGAELVGSGASVKLSCTTSGFNIKDFYMHWVKQRPEQGLEWIGWIDPENGDSDYAPKFQGKATMTADSSSNTAYLQLSSLTSEDTAVYYCNAYYGDYEGYWGQGTTVTVSS
VL: DIELTQSPAIMSASPGEKVTITCSASSSVSYMHWFQQKPGTSPKLWIYSTSNLASGVPARFSGSGSGTSYSLTISRMEAEDAATYYCQQRSSYPFTFGSGTKLEIK
notes: Bivalent chimeric IgG1/kappa with the mouse variable domains of p1C11; expressed in COS cells and purified on Protein G. The leader peptide added for secretion is not part of the mature protein; also called Chimeric-p1C11; c-p1C11 IgG
B2: the “fold higher affinity than the parent scFv” value in experiment [3] was ~2.5 fold.

A word on the EC50 (read off the curve): it is the concentration needed to bring the measured effect to its halfway point. A high value points to lower potency in that assay.
